# Laboratory results from patent US20130230519A1 (published 2013).
# Substitutions are numbered along the chain they refer to.
# B1: DOM7h-14-74 (other)
# VL: DIQMTQSPSSLSASVGDRVTITCRASQWIGSQLSWYQQKPGKAPKLLIMWRSSLQSGVPSRFSGSGSGTDFTLTISSLQPEDFATYYCAQGLRHPKTYGKGTKVENKW
# notes: pDOM5 myc tag not included
# B2: DOM7h-14-101 (other)
# VL: B1 VL with S53A, S56N, Y98F, K100Q, N106I
# notes: pDOM5 myc tag not included
# B3: DOM7h-14-56 (other)
# VL: B1 VL with K45M, R51S, Y98F, K100Q, N106I
# notes: pDOM5 myc tag not included
# B4: DOM7h-14-109 (other)
# VL: B1 VL with S12F, H94K, Y98F, K100Q, E105K, N106I
# notes: pDOM5 myc tag not included
# B5: DOM7h-14-82 (other)
# VL: B1 VL with L92M, Y98F, K100Q, N106I
# notes: pDOM5 myc tag not included
# B6: DOM7h-14-123 (other)
# VL: B1 VL with W108R
# B7: DOM7h-14-100 (other)
# VL: B1 VL with K100Q
# notes: pDOM5 myc tag not included
# B8: DOM7h-14-76 (other)
# VL: B1 VL with R93K, K100Q, N106I
# notes: pDOM5 myc tag not included
# B9: DOM7h-14-116 (other)
# VL: B1 VL with S53A, H94Y, Y98F, K100Q, N106I
# notes: pDOM5 myc tag not included
# B10: DOM7h-14-120 (other)
# VL: B1 VL with K100Q, W108R
# B11: DOM7h-14-10 (other)
# VL: B1 VL with Y98F, K100Q, N106I, W108R
# notes: Vk dAb (AlbudAb); tag not included here
# B12: DOM7h-14-119 (other)
# VL: B1 VL with K100Q, N106I, W108R
# B13: DOM7h-14-122 (other)
# VL: B1 VL with N106I, W108R
# B14: DOM7h-14-115 (other)
# VL: B1 VL with S53A, K100Q, N106I
# notes: pDOM5 myc tag not included
# B15: DOM7h-14-65 (other)
# VL: B1 VL with S53A, Y98F, K100Q, N106I
# notes: pDOM5 myc tag not included
# Biological target: T1, Human Serum Albumin (human, UniProt P02768 25-609)
# T1 construct: mature; Bought purified serum protein; Immobilised on CM5 chips; also called HSA; human SA
# T1 sequence (P02768 25-609): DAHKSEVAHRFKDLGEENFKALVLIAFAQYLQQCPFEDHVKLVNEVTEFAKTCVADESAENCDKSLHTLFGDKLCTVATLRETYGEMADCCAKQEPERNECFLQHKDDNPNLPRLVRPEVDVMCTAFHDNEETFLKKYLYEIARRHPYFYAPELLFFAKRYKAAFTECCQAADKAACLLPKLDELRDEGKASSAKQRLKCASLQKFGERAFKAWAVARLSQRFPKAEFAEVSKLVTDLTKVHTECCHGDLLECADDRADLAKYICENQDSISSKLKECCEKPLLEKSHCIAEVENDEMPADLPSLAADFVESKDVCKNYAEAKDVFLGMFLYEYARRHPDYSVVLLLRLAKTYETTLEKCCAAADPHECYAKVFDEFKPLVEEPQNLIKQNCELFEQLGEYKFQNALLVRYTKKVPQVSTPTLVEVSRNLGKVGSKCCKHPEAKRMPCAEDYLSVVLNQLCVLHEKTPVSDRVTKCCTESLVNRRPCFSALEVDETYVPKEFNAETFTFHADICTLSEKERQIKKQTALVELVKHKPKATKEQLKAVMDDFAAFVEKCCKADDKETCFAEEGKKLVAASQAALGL
# Assay: SPR (BIAcore), purified dAb
# Protocol: (§1) Unique dAbs were expressed as bacterial supernatants in 0.5 L shake flasks in Onex media at 30° C. for 48 hrs at 250 rpm. dAbs were purified from the culture media by absorption to protein L streamline followed by elution with 100 mM glycine pH2.0.
row,Kd,Binder
1,4.8 nM,B1
2,8.4 nM,B2
3,11.1 nM,B3
4,108 nM,B4
5,15.4 nM,B5
6,12 nM,B6
7,4.5 nM,B7
8,6.3 nM,B8
9,7 nM,B9
10,14 nM,B10

# Biological target: T2, Rat Serum Albumin (rat, UniProt P02770 25-608)
# T2 construct: mature; Bought purified serum protein; also called RSA; rat SA
# T2 sequence (P02770 25-608): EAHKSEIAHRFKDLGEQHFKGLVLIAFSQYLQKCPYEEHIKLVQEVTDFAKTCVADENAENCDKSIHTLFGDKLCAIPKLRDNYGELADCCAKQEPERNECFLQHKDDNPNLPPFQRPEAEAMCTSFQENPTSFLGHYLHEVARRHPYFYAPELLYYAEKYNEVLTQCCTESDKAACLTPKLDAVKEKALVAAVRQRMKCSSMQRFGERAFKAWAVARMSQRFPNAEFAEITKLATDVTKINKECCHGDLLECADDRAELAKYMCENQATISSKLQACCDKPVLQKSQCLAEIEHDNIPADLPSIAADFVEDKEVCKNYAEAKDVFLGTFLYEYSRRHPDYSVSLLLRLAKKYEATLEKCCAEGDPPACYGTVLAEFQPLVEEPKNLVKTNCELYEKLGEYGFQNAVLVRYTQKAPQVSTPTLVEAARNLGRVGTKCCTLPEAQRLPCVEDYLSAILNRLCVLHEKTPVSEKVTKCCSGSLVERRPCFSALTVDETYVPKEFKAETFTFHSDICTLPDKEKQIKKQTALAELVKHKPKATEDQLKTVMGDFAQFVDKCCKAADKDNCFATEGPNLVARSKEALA
# Assay: SPR (BIAcore), purified dAb
# Protocol: as §1
row,Kd,Binder
1,9.4 nM,B11
2,4.3 nM,B1
3,5.8 nM,B2
4,3.4 nM,B3
5,6.2 nM,B12
6,15.4 nM,B4
7,11.8 nM,B5
8,5.1 nM,B6
9,3.7 nM,B7
10,4.7 nM,B8
11,8.5 nM,B9
12,2.7 nM,B10
13,7.8 nM,B13

# Biological target: T3, Cynomolgus monkey Serum Albumin (Cynomolgus monkey, UniProt A2V9Z4 25-608)
# T3 construct: mature; Purified in house; also called CSA; cyno serum albumin
# T3 sequence (A2V9Z4 25-608): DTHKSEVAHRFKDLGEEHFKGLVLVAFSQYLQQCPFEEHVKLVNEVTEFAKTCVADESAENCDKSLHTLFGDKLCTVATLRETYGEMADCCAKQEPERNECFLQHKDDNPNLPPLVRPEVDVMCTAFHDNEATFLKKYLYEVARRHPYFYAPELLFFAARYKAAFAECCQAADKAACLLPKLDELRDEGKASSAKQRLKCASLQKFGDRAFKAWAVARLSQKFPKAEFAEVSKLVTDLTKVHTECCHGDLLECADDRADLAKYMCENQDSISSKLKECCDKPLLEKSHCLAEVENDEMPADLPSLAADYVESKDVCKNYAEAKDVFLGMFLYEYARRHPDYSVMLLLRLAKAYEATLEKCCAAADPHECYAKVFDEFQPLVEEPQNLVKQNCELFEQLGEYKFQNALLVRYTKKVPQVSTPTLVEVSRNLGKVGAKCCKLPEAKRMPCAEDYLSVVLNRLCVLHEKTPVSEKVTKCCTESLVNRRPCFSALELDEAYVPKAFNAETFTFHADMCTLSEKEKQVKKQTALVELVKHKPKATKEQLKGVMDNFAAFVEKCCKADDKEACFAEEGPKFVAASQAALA
# Assay: SPR (BIAcore), purified dAb
# Protocol: as §1
row,Kd,Binder
1,6.3 nM,B1
2,11.6 nM,B2
3,18.7 nM,B3
4,17.6 nM,B4
5,170 nM,B5
6,8 nM,B6
7,6.4 nM,B7
8,19.9 nM,B8
9,22.8 nM,B9
10,3.7 nM,B10

# Biological target: T4, mouse serum albumin (mouse, UniProt P07724 25-608)
# T4 construct: mature; Bought purified serum protein; also called MSA; mouse SA
# Assay: SPR (BIAcore), purified dAb
# Protocol: as §1
row,Kd,Binder
1,30.1 nM,B11
2,23.5 nM,B1
3,16.8 nM,B2
4,6.3 nM,B3
5,58.1 nM,B4
6,32.3 nM,B5
7,9.8 nM,B14
8,8 nM,B7
9,11.5 nM,B8
10,19.1 nM,B9
11,15.3 nM,B15

# Biological target: T2, Rat Serum Albumin
# Assay: SPR (BIAcore), purified dAb; second protein batch, second analyst
# Protocol: as §1
row,Kd,Binder
1,11.6 nM,B1
2,29 nM,B7
3,25 nM,B15

# Biological target: T3, Cynomolgus monkey Serum Albumin
# Assay: as above
# Protocol: as §1
row,Kd,Binder
1,2.7 nM,B1
2,6.1 nM,B7
3,16 nM,B15
